Experimental data: publication PMC13433802, “Structure of the NAT10 acetyltransferase and mechanism of tRNA acetylation” (Nature Communications, 2026)

What was measured:
[1] = molecular target: T1, CtNAT10 (Chaetomium thermophilum NAT10; Kre33) (Thermochaetoides thermophila, UniProt G0S273); assay: differential scanning fluorimetry, SYPRO orange; format: binding; details: apo Tm 42.0 ± 0.3 °C, 5 mM MgCl2, Hepes pH 7.5, Tm with ligand, not a shift
T1 construct: codon-optimised synthetic gene; Sf9 (functional assays and 9B0I) or E. coli (9AYM, 9B0E)
T1 sequence (G0S273 1-1073): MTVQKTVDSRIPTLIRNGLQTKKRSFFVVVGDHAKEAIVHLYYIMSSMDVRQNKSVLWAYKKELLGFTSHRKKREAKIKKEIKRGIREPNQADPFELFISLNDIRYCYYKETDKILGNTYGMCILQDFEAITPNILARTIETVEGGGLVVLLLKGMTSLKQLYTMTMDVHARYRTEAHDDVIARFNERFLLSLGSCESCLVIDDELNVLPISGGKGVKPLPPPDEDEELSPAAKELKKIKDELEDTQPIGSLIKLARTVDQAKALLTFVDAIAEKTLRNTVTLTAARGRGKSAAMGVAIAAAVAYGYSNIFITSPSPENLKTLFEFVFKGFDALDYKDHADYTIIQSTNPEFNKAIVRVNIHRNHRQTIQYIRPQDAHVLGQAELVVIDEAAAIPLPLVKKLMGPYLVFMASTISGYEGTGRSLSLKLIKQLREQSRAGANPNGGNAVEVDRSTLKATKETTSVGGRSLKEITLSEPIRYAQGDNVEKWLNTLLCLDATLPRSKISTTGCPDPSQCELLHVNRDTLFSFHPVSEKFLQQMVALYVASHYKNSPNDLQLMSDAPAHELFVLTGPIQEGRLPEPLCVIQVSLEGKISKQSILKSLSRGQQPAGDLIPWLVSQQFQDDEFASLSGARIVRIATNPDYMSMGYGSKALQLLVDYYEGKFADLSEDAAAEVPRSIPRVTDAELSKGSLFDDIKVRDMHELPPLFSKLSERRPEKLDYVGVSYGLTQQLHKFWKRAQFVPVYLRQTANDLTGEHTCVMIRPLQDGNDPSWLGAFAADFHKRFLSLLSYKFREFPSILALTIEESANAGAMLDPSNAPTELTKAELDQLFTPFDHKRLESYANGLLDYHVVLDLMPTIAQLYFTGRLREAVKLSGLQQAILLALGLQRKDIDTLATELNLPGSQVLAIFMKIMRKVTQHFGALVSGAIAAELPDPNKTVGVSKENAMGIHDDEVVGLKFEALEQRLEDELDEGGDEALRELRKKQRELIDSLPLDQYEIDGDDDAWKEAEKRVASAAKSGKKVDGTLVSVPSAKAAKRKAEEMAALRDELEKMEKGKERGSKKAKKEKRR

[2] = molecular target: Chaetomium thermophilum NAT10 (CtNAT10), E. coli-produced recombinant (Chaetomium thermophilum); assay: mass photometry; 1 ul of 200 nM protein stock into 19 ul dilution buffer (10 nM); 300 mM NaCl, 25 mM Hepes-NaOH pH 7.5, 1 mM TCEP; room temperature
[3] = molecular target: Chaetomium thermophilum NAT10 (CtNAT10), Sf9-produced recombinant (Chaetomium thermophilum); assay: as above
CtNAT10 WT [4] = molecular target: T2, CtNAT10 WT (Chaetomium thermophilum, UniProt G0S273 1-1073); assay: EMSA; 0.5 mM ATP, 0.1 mM acetyl-CoA; 50 mM Hepes-KOH pH 7.6, 90 mM NaCl (Fig 1B) or 75 mM NaCl + 0.2 mg/ml BSA (Fig S4A), 12 mM KCl, 10 mM MgCl2, 1 mM DTT, 0.5 mM ATP, 0.1 mM acetyl-CoA; Fig 1B 15; details: protein: recombinant; tags: N-terminal 6xHis; chain copies: 2; tRNA fold
T2 sequence: T1 sequence (G0S273 1-1073)

CtNAT10 WT [5] = molecular target: T2, CtNAT10 WT; assay: EMSA; no THUMPD1; 0.5 mM ATP, 0.1 mM acetyl-CoA; 50 mM Hepes-KOH pH 7.6, 90 mM NaCl (Fig 1B) or 75 mM NaCl + 0.2 mg/ml BSA (Fig S4A), 12 mM KCl, 10 mM MgCl2, 1 mM DTT, 0.5 mM ATP, 0.1 mM acetyl-CoA; Fig 1B 15; details: protein: recombinant; tags: N-terminal 6xHis; chain copies: 2; tRNA fold

Nc1ncnc2c1ncn2[C@@H]1O[C@H](COP(=O)(O)OP(=O)(O)OP(=O)(O)O)[C@@H](O)[C@H]1O [ATP]
Tm ([1]; ligand series 0.25-2500 μM): 53.8 ± 0.1 °C

CC(=O)SCCNC(=O)CCNC(=O)[C@H](O)C(C)(C)COP(=O)(O)OP(=O)(O)OC[C@H]1O[C@@H](n2cnc3c(N)ncnc32)[C@H](O)[C@@H]1OP(=O)(O)O [acetyl-CoA]
Tm ([1]; ligand series 0.25-2500 μM): 46.1 ± 0.1 °C

CC(C)(COP(=O)(O)OP(=O)(O)OC[C@H]1O[C@@H](n2cnc3c(N)ncnc32)[C@H](O)[C@@H]1OP(=O)(O)O)[C@@H](O)C(=O)NCCC(=O)NCCSCC(=O)Nc1ccn([C@@H]2O[C@H](CO)[C@@H](O)[C@H]2O)c(=O)n1 [cytidine-amide-CoA]
Tm ([1]; ligand series 0.20-2000 μM): 46.4 ± 0.1 °C

Chaetomium thermophilum NAT10 (CtNAT10), E. coli-produced recombinant (enzyme)
stoichiometry N [2]: 2

Chaetomium thermophilum NAT10 (CtNAT10), Sf9-produced recombinant (enzyme)
stoichiometry N [3]: 2

B1: ct-tRNALeu (synthetic) (structured_RNA)
RNA: GGCAAGAUGGCCGAGCGGUCCAAGGCGCCAGGUUCAGGUCCUGGUCUCCGCAAGGGGGCGUGAGUUCGAAUCUCACUCUUGUCA
binding result (CtNAT10 WT [4]): binds

B2: ct-tRNASer (synthetic) (structured_RNA)
RNA: GACAACUUGGCCGAGUGGUUAAGGCGACAGACUUGAAAUCUGUUGGGUUCGCCCUCACAGGUUCGAAUCCUGUAGUUGUCG
binding result (CtNAT10 WT [4]): binds

B3: CttRNAAla (IVT) (structured_RNA)
RNA: GGGCGUGUAGCUCAGUUGGUAGAGCGUUCGCUUAGCAUGCGAGAGGUCCUGGGUUCGAUUCCCAGCCCGUCCA
binding result (CtNAT10 WT [5]): binds
